Laboratory results reported in US20230324413A1, “RENIN-BASED ANALYSIS OF HEPCIDIN” (TAMPERE UNIVERSITY FOUNDATION SR, priority 2020, published 2023).

Biological target: T1, human renin (Homo sapiens, UniProt P00797)
T1 construct: purchased Biovision, Inc. San Francisco, CA
T1 sequence (P00797 67-406): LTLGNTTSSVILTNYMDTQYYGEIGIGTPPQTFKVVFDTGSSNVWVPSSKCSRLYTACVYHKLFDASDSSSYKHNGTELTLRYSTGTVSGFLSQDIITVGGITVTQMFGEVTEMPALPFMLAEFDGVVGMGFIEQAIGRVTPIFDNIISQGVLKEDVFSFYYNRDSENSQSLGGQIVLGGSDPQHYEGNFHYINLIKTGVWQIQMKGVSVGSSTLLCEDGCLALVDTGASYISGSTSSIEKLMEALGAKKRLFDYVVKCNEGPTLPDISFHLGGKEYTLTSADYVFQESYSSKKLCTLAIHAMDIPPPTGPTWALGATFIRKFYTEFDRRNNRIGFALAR
Test: Renin inhibition screening kit, kinetic fluorescence measurement of renin enzyme activity
Type: biochemical
Settings: for Inhibition of renin activity (in words): 10 nM, 100 nM and 500 nM, FIG. 5; for Mean inhibitory effect on renin activity: 37° C, 60 min kinetic fluorescence
Description: Human hepcidin-25/LEAP-1 (hep-25, with disulfide bonds between Cys7-Cys23, Cys10-Cys13, […], and Cys14-Cys22, purity assessed by HPLC≥98.0%) was purchased from Peptides International (Peptides International Inc, Louisville, KY). N-terminal part of hepcidin, DTHFPICIF (hep-9; SEQ ID NO: 6) and DTHFP (hep-5; SEQ ID NO: 7), were synthetized by Proteogenix (Schiltigheim, France). Renin inhibition screening kit was purchased from Biovision (Biovision, Inc. San Francisco, CA). ForteBio's 96 well black plates were used in the measurements.
Hep-25, hep-9, and hep-5 were used in final sample concentrations of 10 nM, 100 nM and 500 nM to measure inhibition of renin enzyme activity. The concentrations used represent normal levels of hepcidin in human circulation. Fluorescence measurement was performed using Perkin Elmer UV/VIS Envision multimode plate reader. Excitation and emission wavelengths were 328 and 552 nm, respectively. Fluorescence was recorded every 60 s for 60 min at 37° C. Rate of renin inhibition was calculated following the manufacture's instructions.

| Substance | Inhibition of renin activity (in words) | Mean inhibitory effect on renin activity (peptide concentration 10 nM) [%] | Mean inhibitory effect on renin activity (peptide concentration 100 nM) [%] | Mean inhibitory effect on renin activity (peptide concentration 500 nM) [%] |
| --- | --- | --- | --- | --- |
| DTHFP [hepcidin-5, N-terminal part of hepcidin, 5 amino acids, synthetized by Proteogenix] | inhibited renin activity | 50.1 | 50.0 | 58.6 |
| DTHFPICIF [hepcidin-9] | inhibited renin activity | 41.25 | 41.15 | 42.65 |
| hepcidin-25: mature bioactive 25 amino acid hepcidin peptide, SEQ ID NO: 1; purchased from Peptides International | – | 20.4 | 29.2 | 38.3 |
